Data as given in the supplement of paper PMC10567573.

B1: FEM1A (parent)
chain: PCCSSSPEEPLNGESYESCCPTSR

Variants of: B1
Experiment: protein stability index of a GFP-peptide fusion (GPS, HEK-293T) (PSI 1-6); higher = more stable
Conditions: c terminus: a fixed tail appended
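Further: lentivirally expressed fusions sorted by FACS into six bins by GFP to DsRed ratio, PSI derived from sequencing read proportions per bin multiplied by bin number.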

Protein stability index of substitutions, site by site:
R24: N 4.96; F 4.78; W 3.05; A 4.81; S 5.27; H 4.75; D 5.19; P 4.81; L 4.81; Q 5.08; M 4.6; V 4.34; Y 4.25; E 5.04; C 4.33; G 5.14; T 4.97; K 4.75; I 4.39
Y16: T 4.37; P 4.61; N 3.97; C 4.27; F 3.97; L 3.84; D 4.57; V 4.35; Q 4.55; A 3.55; H 4.59; E 4.69; K 3.68; I 3.73; S 3.7; G 3.9; R 3.35; M 3.83; W 3.2
N12: R 3.48; H 3.48; P 2.66; S 4.38; T 3.89; L 4.04; Q 3.32; M 3.98; W 3.03; V 3.58; K 2.97; I 4.22; Y 3.96
S18: V 3.45; F 2.89; W 2.5; A 4.71; M 3.06; H 3.74; E 4; Q 4.02; C 4.24; Y 3.07; P 4; K 3.64; I 3.03; R 3.11; T 4.19; L 3.01; N 3.68; D 4.23
P21: F 3.04; V 3.1; Y 3.01; R 4.13; Q 4.17; W 2.62; T 3.76; G 3.78; N 3.81; A 3.68; H 3.71; E 4.19; S 3.09; M 2.28; K 3.81; C 3.92; I 2.6; D 5; L 3.51
S23: M 4.05; E 4.42; D 5; K 4.18; H 3.6; A 4.35; V 3.07; C 4.2; N 4.1; F 3.22; Q 4.31; G 3.75; I 3.53; L 3.86; Y 3.09; T 4.13; P 3.52; W 3.43; R 2.95
C20: A 3.53; Q 3.54; N 4.35; F 2.91; H 3.32; P 3.06; D 4.12; M 3.18; E 4.24; W 3.69; V 3.47; S 4.14; K 3.31; G 3.25; I 3.54; Y 3.38; L 3.7; T 3.91; R 4.08
C19: W 1.98; A 3.94; R 3.97; Q 4.09; V 3.89; P 4.08; I 3.72; G 3.61; Y 3.72; H 3.57; E 4.54; S 4.11; M 3.49; L 3.28; F 3.76; K 4.25; D 4.5; N 3.67; T 3.56
S15: H 3.92; K 3.68; P 4.14; C 3.47; Q 3.52; V 3.81; E 3.61; G 3.88; L 3.07; M 3.12; R 3.51; N 3.62; F 2.63; I 3.66; W 2.85; D 4.61; A 3.98; Y 3.17; T 2.69
E17: T 3.56; I 2.83; S 2.51; K 3.25; H 3.44; R 2.67; Y 2.52; W 1.72; G 3.43; F 3.55; P 3.7; C 4.12; L 2.37; V 2.87; N 3.37; M 3.44; A 3.04; D 3.81
T22: G 3.53; M 3.45; L 3.66; I 3.38; P 3.13; Q 4.21; W 3.78; F 3.36; D 4.61; S 4.04; K 3.79; H 3.37; Y 3.5; N 3.9; V 3.35; E 4.53; A 3.99; R 3.09; C 4.41
G13: D 4.43; P 4.01; N 3.46; Y 3.01; H 4.14; F 3.26; E 5.17; T 3.75; W 2.79; Q 4.43; S 3.75; A 4.14; K 4.05; V 3.51; R 3.96; I 3.42; C 3.54; M 3.29; L 3.63
E14: F 2.71; P 3.41; M 2.99; H 3.81; R 3.62; S 3.14; Q 3.33; L 3.01; N 3.66; A 3.77; K 2.9; V 2.8; C 2.86; Y 2.41; W 2.57; G 2.24; I 2.88; D 3.77; T 2.94
